Series [1] has as its target GST-hsGSK3β (UniProt P49841).
Series [2] addresses T1, GST-BIN2 (UniProt Q39011).
T1 sequence: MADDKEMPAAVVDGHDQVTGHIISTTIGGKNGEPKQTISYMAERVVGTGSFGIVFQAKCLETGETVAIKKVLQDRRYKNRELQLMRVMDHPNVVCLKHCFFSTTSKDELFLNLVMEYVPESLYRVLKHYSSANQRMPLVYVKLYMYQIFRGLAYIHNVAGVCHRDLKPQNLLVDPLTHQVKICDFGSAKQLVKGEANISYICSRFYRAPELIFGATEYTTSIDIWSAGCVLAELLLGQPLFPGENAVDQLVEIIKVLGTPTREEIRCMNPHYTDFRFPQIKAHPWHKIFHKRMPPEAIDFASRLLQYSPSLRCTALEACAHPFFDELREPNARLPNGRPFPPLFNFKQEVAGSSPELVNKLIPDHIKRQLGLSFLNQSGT

Sequence of GST-hsGSK3β (P49841 whole entry, looked up): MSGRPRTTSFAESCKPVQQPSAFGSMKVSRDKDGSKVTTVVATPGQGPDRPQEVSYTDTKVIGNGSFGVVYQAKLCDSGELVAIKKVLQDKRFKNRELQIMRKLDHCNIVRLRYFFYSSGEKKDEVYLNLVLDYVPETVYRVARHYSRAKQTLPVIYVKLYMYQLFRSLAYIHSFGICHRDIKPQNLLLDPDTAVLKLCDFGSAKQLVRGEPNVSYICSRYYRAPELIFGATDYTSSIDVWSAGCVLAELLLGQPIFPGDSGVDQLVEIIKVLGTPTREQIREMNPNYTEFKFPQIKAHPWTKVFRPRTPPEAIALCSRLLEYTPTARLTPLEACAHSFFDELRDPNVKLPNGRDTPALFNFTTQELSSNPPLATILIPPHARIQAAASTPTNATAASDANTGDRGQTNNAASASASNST

In the case of MBP-hsPPP1cc, the “phosphorylation status of tyrosine 216 of hsGSK3β (immunoblot with anti-phospho-tyrosine 216 antibody)” value in series [1] was “human protein phosphatase 1 gamma (PP1γ) dephosphorylates tyrosine 216 of human GSK3 beta in vitro”.
Regarding PP1 purified from E. coli, the “dephosphorylation of BIN2 tyrosine200” value in series [2] is on record as “The presence of PP1 increased dephosphorylation of BIN2 tyrosine200”.

(Values after patent US20120322150.)
